Results: patent publication US20220332804A1 (CSL INNOVATION, published 2022)
Residue numbers refer to the chain shown, from its start.

Tests used:
Test in all cases: SPR, antibody captured, C2 as analyte;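 further: biacore at 37 °C, anti-C2 mAbs held by immobilised goat anti-human IgG, C2 alanine or serine mutants injected, double-referenced sensorgrams fitted to a 1:1 kinetic or steady-state model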
human C2 T442A = molecular target: T1, human C2 T442A (human, UniProt P06681 21-752)
T1 sequence: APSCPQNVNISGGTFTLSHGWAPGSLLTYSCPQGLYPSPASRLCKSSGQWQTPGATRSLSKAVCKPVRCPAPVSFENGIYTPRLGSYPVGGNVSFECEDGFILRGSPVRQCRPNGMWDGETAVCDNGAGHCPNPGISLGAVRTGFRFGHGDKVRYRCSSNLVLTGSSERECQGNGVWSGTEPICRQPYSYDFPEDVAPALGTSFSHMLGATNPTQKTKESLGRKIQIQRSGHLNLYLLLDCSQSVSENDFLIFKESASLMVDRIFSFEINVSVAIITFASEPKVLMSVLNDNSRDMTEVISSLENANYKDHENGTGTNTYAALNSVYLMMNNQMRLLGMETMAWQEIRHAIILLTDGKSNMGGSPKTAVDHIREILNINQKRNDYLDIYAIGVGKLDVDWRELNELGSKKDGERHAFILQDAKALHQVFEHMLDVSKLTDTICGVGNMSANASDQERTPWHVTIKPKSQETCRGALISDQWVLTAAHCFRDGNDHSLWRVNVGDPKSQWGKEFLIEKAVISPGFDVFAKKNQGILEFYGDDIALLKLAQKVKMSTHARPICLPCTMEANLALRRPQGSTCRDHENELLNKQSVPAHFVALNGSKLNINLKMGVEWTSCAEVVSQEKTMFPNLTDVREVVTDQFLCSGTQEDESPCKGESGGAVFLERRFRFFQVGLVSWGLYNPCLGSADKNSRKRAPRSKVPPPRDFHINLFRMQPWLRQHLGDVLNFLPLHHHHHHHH

human C2 D417A = molecular target: T2, human C2 D417A (human, UniProt P06681 21-752)
T2 sequence: T1 sequence with D397A, A422T

human C2 G414A = molecular target: T3, human C2 G414A (human, UniProt P06681 21-752)
T3 sequence: T1 sequence with G394A, A422T

human C2 A472S = molecular target: T4, human C2 A472S (human, UniProt P06681 21-752)
T4 sequence: T1 sequence with A422T, A452S

B1: RF16-242 (antibody, human IgG4 S228P, lambda, V domains shown)
VH: EVQLLQSGAEVKKPGESLKISCKGSGYSFTSYWIGWVRQMPGKGLEWMGIIYPGDSDTRYSPSFQGQVTISADKSISTAYLQWSSLKASDTAMYYCARRGHYGDYFDYWGQGTLVTVSS
VL: SYELTQPPSVSVSPGQTARITCSGDALPKKYAYWYHQKSGQAPVLVIYEDRRRPSEIPERFSGSSSGTMATLTITGAQVEDEGVYFCYSRDRAGNQRVFGGGTQLTVLG
notes: pH-dependent anti-C2 antibody from a phage display library
For B1, the Kd (human C2 T442A) was 18 nM, the Kd (human C2 D417A) was 23 nM and the Kd (human C2 G414A) was 4.2 nM. It also gave a Kd (human C2 A472S) of 51.1 nM.
